# Molecular target: HLA-A*02:01 (Homo sapiens, UniProt P04439, D140Y/D185E/D98H/E176V/E277Q/G131W/G231S/I119V/I121R/I166T/I218V/L300P/L318F/N151K/N90K/P208A/P217A/Q86G/Q94H/R138H/R169H/T345S)
# Assay: MHC binding assay (UV-ligand exchange, β2m ELISA)
# Conditions: MHC class I binding score; binding to HLA-A*02:01 ranged by peptide exchange yield (UV-ligand exchange, β2m ELISA)
# Source text: Candidate peptides for T cell based therapies according to the present invention were further tested for their MHC binding capacity (affinity). The individual peptide-MHC complexes were produced by UV-ligand exchange, where a UV-sensitive peptide is cleaved upon UV-irradiation, and exchanged with the peptide of interest as analyzed. Only peptide candidates that can effectively bind and stabilize the peptide-receptive MHC molecules prevent dissociation of the MHC complexes. To determine the yield of the exchange reaction, an ELISA was performed based on the detection of the light chain (β2m) of stabilized MHC complexes. The assay was performed as generally described in Rodenko et al. (Rodenko et al., 2006).
# 96 well MAXISorp plates (NUNC) were coated over night with 2 ug/ml streptavidin in PBS at room temperature, washed 4× and blocked for 1 h at 37° C. in 2% BSA containing blocking buffer. Refolded HLA-A*02:01/MLA-001 monomers served as standards, covering the range of 15-500 ng/ml. Peptide-MHC monomers of the UV-exchange reaction were diluted 100 fold in blocking buffer. Samples were incubated for 1 h at 37° C., washed four times, incubated with 2 ug/ml HRP conjugated anti-β2m for 1 h at 37° C., washed again and detected with TMB solution that is stopped with […]. Absorption was measured at 450 nm. Candidate peptides that show a high exchange yield (preferably higher than 50%, most preferred higher than 75%) are generally preferred for a generation and production of antibodies or fragments thereof, and/or T cell receptors or fragments thereof, as they show sufficient avidity to the MHC molecules and prevent dissociation of the MHC complexes.
row,Substance,Peptide exchange
1,204 (RMDEEFTKI; listed as Homo sapiens) [compound 204],+++ (>50 = +++)
2,179 (ALDDTVLQV; listed as Homo sapiens) [compound 179],+++ (>50 = +++)
3,224 (ILDEPTNHL; listed as Homo sapiens) [compound 224],++ (>20% = ++)
4,227 (FLLEQEKTQAL; listed as Homo sapiens) [compound 227],++++ (>75% = ++++)
5,84 (GLDTILQNL; listed as Homo sapiens) [compound 84],++++ (>75% = ++++)
6,185 (ILADATAKM; listed as Homo sapiens) [compound 185],++++ (>75% = ++++)
7,32 (GLDIITNKV; listed as Homo sapiens) [compound 32],+++ (>50 = +++)
8,150 (KLFPSPLQTL; listed as Homo sapiens) [compound 150],++++ (>75% = ++++)
9,200 (LLEEINHFL; listed as Homo sapiens) [compound 200],+++ (>50 = +++)
10,94 (LLDAFSIKL; listed as Homo sapiens) [compound 94],+++ (>50 = +++)
11,180 (KLAEALYIA; listed as Homo sapiens) [compound 180],+++ (>50 = +++)
12,66 (VMFEYGMRL; listed as Homo sapiens) [compound 66],++++ (>75% = ++++)
13,118 (TMIEICEKL; listed as Homo sapiens) [compound 118],++++ (>75% = ++++)
14,126 (SLIDFVVTC; listed as Homo sapiens) [compound 126],+++ (>50 = +++)
15,183 (FLDSLIYGA; listed as Homo sapiens) [compound 183],++++ (>75% = ++++)
16,73 (ELDKIYETL; listed as Homo sapiens) [compound 73],+ (>10% = +)
17,57 (GILSFLPVL; listed as Homo sapiens) [compound 57],+++ (>50 = +++)
18,55 (NLDKLYHGL; listed as Homo sapiens) [compound 55],+ (>10% = +)
19,102 (RLPDQFSKL; listed as Homo sapiens) [compound 102],+++ (>50 = +++)
20,160 (ALDDISESI; listed as Homo sapiens) [compound 160],++++ (>75% = ++++)

row,Substance,Peptide exchange
1,117 (KQQASQVLV; listed as Homo sapiens) [compound 117],+++ (>50 = +++)
2,24 (SLVAILHLL; listed as Homo sapiens) [compound 24],+++ (>50 = +++)
3,231 (KMVGDVTGA; listed as Homo sapiens) [compound 231],+++ (>50 = +++)
4,237 (VLYNESLQL; listed as Homo sapiens) [compound 237],++++ (>75% = ++++)
5,82 (GIDDLHISL; listed as Homo sapiens) [compound 82],+++ (>50 = +++)
6,146 (GVGPVPARA; listed as Homo sapiens) [compound 146],+++ (>50 = +++)
7,172 (FLPAGIVAV; listed as Homo sapiens) [compound 172],++++ (>75% = ++++)
8,184 (VLFSSPPVILL; listed as Homo sapiens) [compound 184],++++ (>75% = ++++)
9,85 (GLLDVMYQV; listed as Homo sapiens) [compound 85],++++ (>75% = ++++)
10,109 (VIDDLIQKL; listed as Homo sapiens) [compound 109],++ (>20% = ++)
11,41 (LLDDPTNAHFI; listed as Homo sapiens) [compound 41],+++ (>50 = +++)
12,77 (SIDDVVKKL; listed as Homo sapiens) [compound 77],++ (>20% = ++)
13,45 (FVYGEPREL; listed as Homo sapiens) [compound 45],+++ (>50 = +++)
14,225 (VLFGAVITGA; listed as Homo sapiens) [compound 225],++++ (>75% = ++++)
15,26 (KIEDLIKYL; listed as Homo sapiens) [compound 26],+++ (>50 = +++)
16,2 (VLLGENVEL; listed as Homo sapiens) [compound 2],+++ (>50 = +++)
17,101 (NVDENVAEL; listed as Homo sapiens) [compound 101],++ (>20% = ++)
18,37 (TLKEYLESL; listed as Homo sapiens) [compound 37],+++ (>50 = +++)
19,161 (GLCDSIITI; listed as Homo sapiens) [compound 161],++++ (>75% = ++++)
20,223 (FLETNVPLL; listed as Homo sapiens) [compound 223],+++ (>50 = +++)

row,Substance,Peptide exchange
1,134 (LLDEVLHTM; listed as Homo sapiens) [compound 134],++++ (>75% = ++++)
2,195 (IAAGIFNDL; listed as Homo sapiens) [compound 195],+ (>10% = +)
3,170 (KLKEAVEAI; listed as Homo sapiens) [compound 170],++ (>20% = ++)
4,113 (VLYSLVSKI; listed as Homo sapiens) [compound 113],+++ (>50 = +++)
5,230 (HLDEARTLL; listed as Homo sapiens) [compound 230],++++ (>75% = ++++)
6,152 (IMEDFTTFL; listed as Homo sapiens) [compound 152],++++ (>75% = ++++)
7,131 (FVDPNGKISL; listed as Homo sapiens) [compound 131],+++ (>50 = +++)
8,175 (VLDSVDVRL; listed as Homo sapiens) [compound 175],++++ (>75% = ++++)
9,74 (GTIPLIESL; listed as Homo sapiens) [compound 74],+ (>10% = +)
10,182 (SVALVIHNV; listed as Homo sapiens) [compound 182],++++ (>75% = ++++)
11,173 (ALDDIIYRA; listed as Homo sapiens) [compound 173],+++ (>50 = +++)
12,132 (FLDASGAKL; listed as Homo sapiens) [compound 132],++++ (>75% = ++++)
13,229 (LLEPFVHQV; listed as Homo sapiens) [compound 229],++++ (>75% = ++++)
14,166 (SIIPPLFTV; listed as Homo sapiens) [compound 166],++++ (>75% = ++++)
15,140 (RLEAYLARV; listed as Homo sapiens) [compound 140],+++ (>50 = +++)
16,122 (YVDDFGVSV; listed as Homo sapiens) [compound 122],+++ (>50 = +++)
17,219 (FLDSEVSEL; listed as Homo sapiens) [compound 219],+++ (>50 = +++)
18,176 (TLYEQEIEV; listed as Homo sapiens) [compound 176],++++ (>75% = ++++)
19,30 (VLFPMDLAL; listed as Homo sapiens) [compound 30],+++ (>50 = +++)
20,104 (SLDQIIQHL; listed as Homo sapiens) [compound 104],+++ (>50 = +++)

# — patent publication US10640547B2, “Immunotherapy against melanoma and other cancers” (IMMATICS BIOTECHNOLOGIES GMBH, priority 2016, dated 2020)
